Assay results as given in paper PMC8453653, “Kinetic Characterization of a Putatively Chitin-Active LPMO Reveals a Preference for Soluble Substrates and Absence of Monooxygenase Activity” (ACS Catalysis, 2021).

Substrate: O=C1O[C@H]([C@@H](O)CO)C(O)=C1O
Assay: initial rates of oxidized product formation by HPAEC-PAD, Michaelis-Menten fit
Type: biochemical, Aspergillus fumigatus
Settings: reductant (apparent half-saturating concentration), 1 μM LPMO, 1 mM H2O2, 2 mM (GlcNAc)4, aerobic, 50 mM bis-tris/HCl pH 6.5, 37 °C
Excerpt: initial rates of oxidized product formation by HPAEC-PAD, Michaelis-Menten fit on AfAA11B

B1: AfAA11B (Aspergillus fumigatus Af293) (protein)
chain: HMKMRQPTPYSDSSLNNSPLAADGSDFPCKLRDNAFVPPSQETIAQIGEVMPLTFTGSATHGGGSCQVSLTTDLKPSKDSKWMVIKSIEGGCPANVDGNMSGGADVPDPFEFNYTIPAGIEPGKYTLAWTWFNRIGNREMYMNCAPITVTAGSSKRDAAPVAEKVEVEKRSANFPAMFVANINGCTTKEGVDIRFPDPGDVVEYDGNPSNLQPAGEAACSGTPAWTVSGGSGSPSTPSTSSSTPAGTSAGVSVSVGATVGATPTAEPESSSSEPAESEGAPGVFAPTSATVFPSTPTASAAPTSSSSGAGSESDSSSSSNGALTGPCSTEGLWNCIDGSSFQRCANGQWTTAQQMAAGTECTVGQNAQFTISATAVKPRMINAMRHRKRAHGGHRHA
notes: gene 1257 bp; expressed in Pichia pastoris (PichiaPink Strain 4), no tag mentioned; copper-saturated
- Km: 502 ± 35 µM
- kcat: 3.9 ± 0.2 s^–1
